For five molecules, EC50 results are on record in patent publication US20210002376A1 (UNIVERSIT T STUTTGART, published 2021).

The target of experiment [1] is T1, HER3-His (UniProt P21860 21-643).
T1 construct: range 21-643; also called His-tagged HER3; second antigen
As to the kind of experiment: simultaneous binding ELISA: coated EGFR-Fc, Db titrated, HER3-His 300 nM added, anti-His-HRP. For orientation: In an ELISA, binding on a coated surface is turned into a signal by an enzyme label.

The target of experiment [2] is T2, HER3-Fc fusion protein (UniProt P21860 21-643).
T2 construct: range 21-643; Coated antigen in ELISA; not shown: Fc part of the fusion, not described
As to the kind of experiment: ELISA, coated HER3-Fc, anti-human Fab-HRP.

Experiment [3] addresses T3, EGFR-Fc fusion protein (UniProt P00533 25-645).
T3 construct: range 25-645; Coated antigen in ELISA; not shown: Fc part of the fusion, not described
The experiment can be described thus: ELISA, coated EGFR-Fc, anti-human Fab-HRP.

Experiment [4] concerns the target T4, HER3 (on tumor cells) (UniProt P21860 20-1342, limits assumed).
T4 construct: whole, on cells; also called HER3 on MCF-7, SKBR-3 (SKBR3) and FaDu cells
The experiment can be described thus: flow cytometry on HER3-positive MCF-7 cells. In general terms: In flow cytometry, cells or beads pass a laser one at a time.

Experiment [5] concerns the target T2, HER3-Fc fusion protein. The experiment can be described thus: ELISA, coated HER3-Fc, anti-human Fab-HRP. This is another data set of the same source.
In experiment [6] the target is T1, HER3-His. As to the kind of experiment: simultaneous binding ELISA: coated EGFR-Fc, Db titrated, HER3-His 300 nM added, anti-His-HRP. This is another data set of the same source.
Experiment [7] addresses T3, EGFR-Fc fusion protein. As to the kind of experiment: ELISA, coated EGFR-Fc, anti-human Fab-HRP. This is another data set of the same source.
Experiment [8] concerns the target T4, HER3 (on tumor cells). As to the kind of experiment: flow cytometry on HER3-positive MCF-7 cells. This is another data set of the same source.
Experiment [9] deals with T4, HER3 (on tumor cells). The experiment can be described thus: flow cytometry on SKBR-3 cells.
In experiment [10] the target is T4, HER3 (on tumor cells). The experiment can be described thus: flow cytometry on MCF-7 cells.
In experiment [11] the target is T4, HER3 (on tumor cells). The experiment can be described thus: flow cytometry on FaDu cells.
Experiment [12] concerns the target T4, HER3 (on tumor cells). As to the kind of experiment: flow cytometry on FaDu cells. This is another data set of the same source.
For experiment [13], the target named is T4, HER3 (on tumor cells). As to the kind of experiment: flow cytometry on SKBR-3 cells. This is another data set of the same source.
The target in experiment [14] is T4, HER3 (on tumor cells). The experiment can be described thus: flow cytometry on MCF-7 cells. This is another data set of the same source.
For experiment [15], the target named is T5, EGFR-His (UniProt P00533 25-645).
T5 construct: range 25-645; also called His-tagged EGFR
The experiment can be described thus: ELISA, coated His-tagged EGFR ECD, anti-human Fc-HRP.

The target of experiment [16] is T1, HER3-His. As to the kind of experiment: ELISA, coated His-tagged HER3 ECD, anti-human Fc-HRP.
The target of experiment [17] is T1, HER3-His. As to the kind of experiment: simultaneous binding ELISA: coated EGFR-Fc, Db titrated, HER3-His 300 nM added, anti-His-HRP. This is another data set of the same source.
Experiment [18] addresses T1, HER3-His. The experiment is described as above. The source holds these as a separate data set.

Where two headings read alike, the source gives them in different places.

B1: Db3-43xhu225-Ig (bispecific antibody, human IgG1, kappa)
heavy: EVQLVESGGGLVQPGGSLRLSCAASGFSLTNYGVHWVRQAPGKGLEWLGVIWSGGNTDYNTPFTSRFTISRDNSKNTLYLQMNSLRAEDTAVYYCARALTYYDYEFAYWGQGTTVTVSSGGGGSQAGLTQPPAVSVAPGQTASITCGRDNIGSRSVHWYQQKPGQAPVLVVYDDSDRPAGIPERFSGSNYENTATLTISRVEAGDEADYYCQVWGITSDHVVFGGGTKLTVLASTKGPSVFPLAPSSKSTSGGTAALGCLVKDYFPEPVTVSWNSGALTSGVHTFPAVLQSSGLYSLSSVVTVPSSSLGTQTYICNVNHKPSNTKVDKKVEPKSCDKTHTCPPCPAPPVAGPSVFLFPPKPKDTLMISRTPEVTCVVVDVSHEDPEVKFNWYVDGVEVHNAKTKPREEQYNSTYRVVSVLTVLHQDWLNGKEYKCKVSNKGLPSSIEKTISKAKGQPREPQVYTLPPSRDELTKNQVSLTCLVKGFYPSDIAVEWESNGQPENNYKTTPPVLDSDGSFFLYSKLTVDKSRWQQGNVFSCSVMHEALHNHYTQKSLSLSPGK
light: QVQLQQSGPGLVKPSQTLSLTCAISGDSVSSNRAAWNWIRQSPSRGLEWLGRTYYRSKWYNDYAQSLKSRITINPDTPKNQFSLQLNSVTPEDTAVYYCARDGQLGLDALDIWGQGTMVTVSSGGGGSDIQLTQSPSFLSASVGDRVTITCRASQSIGTNIHWYQQKPGKAPKLLIKYASESISGVPSRFSGSGSGTEFTLTISSLQPEDFATYYCQQNNNWPTTFGAGTKLEIKRTVAAPSVFIFPPSDEQLKSGTASVVCLLNNFYPREAKVQWKVDNALQSGNSQESVTEQDSKDSTYSLSSTLTLSKADYEKHKVYACEVTHQGLSSPVTKSFNRGEC
notes: also called bispecific, tetravalent Diabody-Ig targeting EGFR (hu225) and HER3 (3-43) using CH1 and CL; DbEGFRxHER3-Ig
As for B1, the EC50 (commonly the concentration that produces a half-maximal response) in [1] was found to be 0.85 nM; in experiment [2], 0.34 nM; in [3], 0.43 nM; in experiment [4], 0.054 nM.

B2: Db3M6xhu225-Ig (bispecific antibody, human IgG1, kappa)
heavy: EVQLVESGGGLVQPGGSLRLSCAASGFSLTNYGVHWVRQAPGKGLEWLGVIWSGGNTDYNTPFTSRFTISRDNSKNTLYLQMNSLRAEDTAVYYCARALTYYDYEFAYWGQGTTVTVSSGGGGSQSALTQPASVSGSPGQSITISCTGTSSDVGSYNVVSWYQQHPGKAPKLIIYEVSQRPSGVSNRFSGSKSGNTASLTISGLQTEDEADYYCSSYAGSSIFVIFGGGTKVTVLASTKGPSVFPLAPSSKSTSGGTAALGCLVKDYFPEPVTVSWNSGALTSGVHTFPAVLQSSGLYSLSSVVTVPSSSLGTQTYICNVNHKPSNTKVDKKVEPKSCDKTHTCPPCPAPPVAGPSVFLFPPKPKDTLMISRTPEVTCVVVDVSHEDPEVKFNWYVDGVEVHNAKTKPREEQYNSTYRVVSVLTVLHQDWLNGKEYKCKVSNKGLPSSIEKTISKAKGQPREPQVYTLPPSRDELTKNQVSLTCLVKGFYPSDIAVEWESNGQPENNYKTTPPVLDSDGSFFLYSKLTVDKSRWQQGNVFSCSVMHEALHNHYTQKSLSLSPGK
light: EVQLLESGGGLVQPGGSLRLSCAASGFTFSHYVMAWVRQAPGKGLEWVSSISSSGGWTLYADSVKGRFTISRDNSKNTLYLQMNSLRAEDTAVYYCTRGLKMATIFDYWGQGTLVTVSSGGGGSDIQLTQSPSFLSASVGDRVTITCRASQSIGTNIHWYQQKPGKAPKLLIKYASESISGVPSRFSGSGSGTEFTLTISSLQPEDFATYYCQQNNNWPTTFGAGTKLEIKRTVAAPSVFIFPPSDEQLKSGTASVVCLLNNFYPREAKVQWKVDNALQSGNSQESVTEQDSKDSTYSLSSTLTLSKADYEKHKVYACEVTHQGLSSPVTKSFNRGEC
notes: also called bispecific, tetravalent Diabody-Ig targeting EGFR (hu225) and HER3 (3M6); DbEGFRxHER3-Ig
Regarding B2, the EC50 in [5] came to 1.4 nM; in experiment [6], 1.3 nM; in experiment [7] it was 0.48 nM; in experiment [8], 1.54 nM.

B3: 3M6-IgG (antibody, V domains shown)
VH: EVQLLESGGGLVQPGGSLRLSCAASGFTFSHYVMAWVRQAPGKGLEWVSSISSSGGWTLYADSVKGRFTISRDNSKNTLYLQMNSLRAEDTAVYYCTRGLKMATIFDYWGQGTLVTVSS
VL: QSALTQPASVSGSPGQSITISCTGTSSDVGSYNVVSWYQQHPGKAPKLIIYEVSQRPSGVSNRFSGSKSGNTASLTISGLQTEDEADYYCSSYAGSSIFVIFGGGTKVTVL
For B3, the EC50 came to 0.7 nM in [5], 0.44 nM in experiment [9], 1.18 nM in experiment [10] and 7.5 nM in experiment [11].

B4: 3-43-IgG (antibody, V domains shown)
VH: QVQLQQSGPGLVKPSQTLSLTCAISGDSVSSNRAAWNWIRQSPSRGLEWLGRTYYRSKWYNDYAQSLKSRITINPDTPKNQFSLQLNSVTPEDTAVYYCARDGQLGLDALDIWGQGTMVTVSS
VL: QAGLTQPPAVSVAPGQTASITCGRDNIGSRSVHWYQQKPGQAPVLVVYDDSDRPAGIPERFSGSNYENTATLTISRVEAGDEADYYCQVWGITSDHVVFGGGTKLTVL
As for B4, the figures for the EC50 in [12], in [13] and in experiment [14] were 0.003 nM, 0.022 nM and 0.021 nM, respectively.

B5: Db3-43xhu225-MHD2-Fc (bispecific antibody)
heavy: EVQLVESGGGLVQPGGSLRLSCAASGFSLTNYGVHWVRQAPGKGLEWLGVIWSGGNTDYNTPFTSRFTISRDNSKNTLYLQMNSLRAEDTAVYYCARALTYYDYEFAYWGQGTTVTVSSGGGGSQAGLTQPPAVSVAPGQTASITCGRDNIGSRSVHWYQQKPGQAPVLVVYDDSDRPAGIPERFSGSNYENTATLTISRVEAGDEADYYCQVWGITSDHVVFGGGTKLTVLASAELPPKVSVFVPPRDGFFGNPRKSKLICQATGFSPRQIQVSWLREGKQVGSGVTTDQVQAEAKESGPTTYKVTSTLTIKESDWLGQSMFTCRVDHRGLTFQQNASSMCVPDDKTHTCPPCPAPPVAGPSVFLFPPKPKDTLMISRTPEVTCVVVDVSHEDPEVKFNWYVDGVEVHNAKTKPREEQYNSTYRVVSVLTVLHQDWLNGKEYKCKVSNKGLPSSIEKTISKAKGQPREPQVYTLPPSRDELTKNQVSLTCLVKGFYPSDIAVEWESNGQPENNYKTTPPVLDSDGSFFLYSKLTVDKSRWQQGNVFSCSVMHEALHNHYTQKSLSLSPGK
light: QVQLQQSGPGLVKPSQTLSLTCAISGDSVSSNRAAWNWIRQSPSRGLEWLGRTYYRSKWYNDYAQSLKSRITINPDTPKNQFSLQLNSVTPEDTAVYYCARDGQLGLDALDIWGQGTMVTVSSGGGGSDIQLTQSPSFLSASVGDRVTITCRASQSIGTNIHWYQQKPGKAPKLLIKYASESISGVPSRFSGSGSGTEFTLTISSLQPEDFATYYCQQNNNWPTTFGAGTKLEIKRTAELPPKVSVFVPPRDGFFGNPRKSKLICQATGFSPRQIQVSWLREGKQVGSGVTTDQVQAEAKESGPTTYKVTSTLTIKESDWLGQSMFTCRVDHRGLTFQQNASSMCVPD
notes: homodimeric Fc part
With B5, the EC50 is 0.23 nM in [15], 0.34 nM in [16], 1.9 nM in experiment [17] and 1.8 nM in [18].
